Results on 5 proteins are retold here after publication PMC3226628, “The Golgi Localization of GOLPH2 (GP73/GOLM1) Is Determined by the Transmembrane and Cytoplamic Sequences” (PLoS ONE, 2011).

By stoichiometry N is commonly meant the number of molecules, sites or subunits per partner or assembly.

Changes are numbered by the printed parent chain. Names and notes keep the numbering of the source.

Data set [1] concerns the molecule itself. Kind of data set: SDS-PAGE under non-reducing conditions with immunoblot; lysates of HeLa cells 36 h after transfection with pCR3.1-GOLPH2-FLAG or mutants; immunoblot with FLAG antibody.
Data set [2] concerns the molecule itself. Kind of data set: SDS-PAGE under non-reducing and reducing conditions; purified GOLPH2-Δ(1–55) and cysteine mutants boiled with 0 to 100 mM 2-mercaptoethanol, 10% SDS-PAGE; shows disulfide-linked oligomers.
Data set [3] concerns the molecule itself. In words: native gel or EMSA; native-PAGE of purified GOLPH2-Δ(1–55) and cysteine mutants, loaded directly or boiled with 2% SDS and 140 mM 2-mercaptoethanol; BSA monomer, dimer and tetramer as markers. A general note: A gel shift assay detects complexes by their altered migration in electrophoresis.

B1: GOLPH2-FLAG (wild-type, full length) (natural protein, human, UniProt Q8NBJ4 1-401, looked up)
chain: MMGLGNGRRSMKSPPLVLAALVACIIVLGFNYWIASSRSVDLQTRIMELEGRVRRAAAERGAVELKKNEFQGELEKQREQLDKIQSSHNFQLESVNKLYQDEKAVLVNNITTGERLIRVLQDQLKTLQRNYGRLQQDVLQFQKNQTNLERKFSYDLSQCINQMKEVKEQCEERIEEVTKKGNEAVASRDLSENNDQRQQLQALSEPQPRLQAAGLPHTEVPQGKGNVLGNSKSQTPAPSSEVVLDSKRQVEKEETNEIQVVNEEPQRDRLPQEPGREQVVEDRPVGGRGFGGAGELGQTPQVQAALSVSQENPEMEGPERDQLVIPDGQEEEQEAAGEGRNQQKLRGEDDYNMDENEAESETDKQAALAGNDRNIDVFNVEDQKRDTINLLDQREKRNHTL
notes: Golgi phosphoprotein 2 (GOLPH2, GP73, GOLM1), human, full-length cDNA from Huh7 cells; also called pCR3.1-GOLPH2-FLAG; wild-type GOLPH2; source: HeLa, transfected, in lysate; not shown: FLAG, C-terminal, kept
On to B1, for which the “stoichiometry N” value in data set [1] was 2.

B2: GOLPH2-Δ(1–55) (domain or fragment, human, UniProt Q8NBJ4 56-401, looked up)
chain: AAAERGAVELKKNEFQGELEKQREQLDKIQSSHNFQLESVNKLYQDEKAVLVNNITTGERLIRVLQDQLKTLQRNYGRLQQDVLQFQKNQTNLERKFSYDLSQCINQMKEVKEQCEERIEEVTKKGNEAVASRDLSENNDQRQQLQALSEPQPRLQAAGLPHTEVPQGKGNVLGNSKSQTPAPSSEVVLDSKRQVEKEETNEIQVVNEEPQRDRLPQEPGREQVVEDRPVGGRGFGGAGELGQTPQVQAALSVSQENPEMEGPERDQLVIPDGQEEEQEAAGEGRNQQKLRGEDDYNMDENEAESETDKQAALAGNDRNIDVFNVEDQKRDTINLLDQREKRNHTL
notes: Golgi phosphoprotein 2 (GOLPH2, GP73, GOLM1), human, residues 1-55 deleted; C-terminal luminal region, amino acids 56-401; also called purified wild-type GOLPH2; GOLPH2-Δ(1–55) fusion protein; source: E. coli BL21 (DE3), pET22b(+), purified (Ni-NTA)
B2: in data set [2], the binding result is reported as “binds”.

B3: GOLPH2-Δ(1–55) C170A (domain or fragment, human, UniProt Q8NBJ4 56-401, looked up)
chain: B2 chain with C115A
notes: GOLPH2 (GP73, GOLM1), human, residues 1-55 deleted (amino acids 56-401), C170A; also called single mutant C170A; source: E. coli BL21 (DE3), pET22b(+), purified (Ni-NTA)
With B3, the binding result in data set [2] is listed as “binds”.

B4: GOLPH2-Δ(1–55) C159A-C170A (domain or fragment, human, UniProt Q8NBJ4 56-401, looked up)
chain: B2 chain with C104A, C115A
notes: GOLPH2 (GP73, GOLM1), human, residues 1-55 deleted (amino acids 56-401), C159A and C170A; Monomer on non-reducing SDS-PAGE, same migration as the wild type on native-PAGE; also called double mutant C159A–C170A; source: E. coli BL21 (DE3), pET22b(+), purified (Ni-NTA)
In the case of B4, the binding result in data set [3] is recorded as “binds”.

B5: GOLPH2-Δ(1–55) C159A (domain or fragment, human, UniProt Q8NBJ4 56-401, looked up)
chain: B2 chain with C104A
notes: GOLPH2 (GP73, GOLM1), human, residues 1-55 deleted (amino acids 56-401), C159A; also called single mutant C159A; source: E. coli BL21 (DE3), pET22b(+), purified (Ni-NTA)
Turning to B5, the binding result in data set [3] was “binds”.
